Tests used:
[1] = target: FLAG-tagged Y37F mutant-H2B (UniProt P62807)
FLAG-tagged H2B = FLAG-tagged H2B (UniProt P62807)
[2] = test system: biotinylated human histone H2B derived peptide KRSRKESYSVYVYKVL
[3] = test system: biotinylated H4-derived unphosphorylated peptide TVTAMDVVYALKRQGRT
[4] = test system: H2B peptide spanning Tyr37 (Tyr37-H2B; SRKESYSVYVYK)
[5] = test system: purified human H2A recombinant protein (NEB)
[6] = target: purified human H2B recombinant protein (NEB) (UniProt P62807)
[7] = test system: H2B peptide with a Tyr37-to-Phe mutation (SRKESFSVYVYK)
[8] = target: purified human H3 recombinant protein (NEB) (UniProt P68431)
[9] = target: purified human H4 recombinant protein (NEB) (UniProt P62805)

Sequence of recombinant GST-WEE1 protein (Invitrogen) (chain, as listed by the source): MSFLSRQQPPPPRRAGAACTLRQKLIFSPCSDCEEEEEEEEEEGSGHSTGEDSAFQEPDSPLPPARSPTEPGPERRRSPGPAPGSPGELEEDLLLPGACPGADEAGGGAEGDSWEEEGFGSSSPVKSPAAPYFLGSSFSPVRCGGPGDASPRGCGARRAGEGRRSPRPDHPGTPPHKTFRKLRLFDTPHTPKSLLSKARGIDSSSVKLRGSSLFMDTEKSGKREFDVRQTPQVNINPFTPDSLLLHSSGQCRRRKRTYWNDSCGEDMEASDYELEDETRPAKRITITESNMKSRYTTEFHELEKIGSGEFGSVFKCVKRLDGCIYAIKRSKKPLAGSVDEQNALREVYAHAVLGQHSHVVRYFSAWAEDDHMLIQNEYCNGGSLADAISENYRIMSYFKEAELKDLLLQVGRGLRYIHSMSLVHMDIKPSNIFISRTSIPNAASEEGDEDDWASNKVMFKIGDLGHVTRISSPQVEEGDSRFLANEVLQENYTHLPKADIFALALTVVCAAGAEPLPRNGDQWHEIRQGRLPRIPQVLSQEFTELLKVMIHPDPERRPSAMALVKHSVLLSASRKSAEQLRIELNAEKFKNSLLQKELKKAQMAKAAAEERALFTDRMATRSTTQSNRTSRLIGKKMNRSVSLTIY
Sequence of purified WEE1 protein (Examples 5 and 7) (chain, as listed by the source): as above
Sequence of Myc-tagged WEE1 (WT) (chain, as listed by the source): as above

**Q.** With Myc-tagged WEE1 (WT) as the substance, how does the “coexpression in MEFs, immunoprecipitation with pTyr37-H2B antibodies, FLAG immunoblot” value [1] read?
**A.** failed to phosphorylate Y37F mutant (FIG. 13G)

**Q.** And the “coexpression in MEFs, immunoprecipitation with pTyr37-H2B antibodies, FLAG immunoblot” value (FLAG-tagged H2B)?
**A.** the WT-WEE1 specifically phosphorylated H2B

**Q.** What does the source list for “purified WEE1 protein (Examples 5 and 7)”?
**A.** Peptide Immunosandwich Assay (kinase reaction on immobilized peptide, detection with pY37-H2B antibodies, OD 450 nm) [2]: Purified WEE1 exhibited robust H2B Tyr37-phosphorylation and a significant decrease in pY37-H2B levels was observed upon incubation with 5 uM of MK-1775 (FIG. 34); in vitro kinase assay on immobilized peptide, ELISA with pY88-H4 antibodies [3]: Incubation of H4 peptide with WEE1 and Ack1 protein resulted in robust H4 Tyr88-phosphorylation

**Q.** How did the “in vitro kinase reaction with peptide, dot blot with pTyr37-H2B antibody” value [4] turn out when “recombinant GST-WEE1 protein (Invitrogen)” was run?
**A.** WEE1 phosphorylated H2B peptide

**Q.** And the “in vitro kinase assay, immunoblot with pTyr37-H2B antibody” value (shortened to “in vitro kinase assay, immunoblot”) [5]?
**A.** WEE1 specifically phosphorylated H2B and failed to phosphorylate other three core histones, H2A, H3 and H4 (FIG. 13E)

**Q.** And the “in vitro kinase assay, immunoblot” value [6]?
**A.** When purified WEE1 and H2B were incubated, H2B was Tyr37-phosphorylated, however, WEE1 inhibitor abrogated H2B pTyr37-phosphorylation (FIG. 13D)

**Q.** What about the “in vitro kinase reaction with peptide, dot blot with pTyr37-H2B antibody” value [7] of the same substance?
**A.** Y37F mutant peptide was not phosphorylated

**Q.** What about the “in vitro kinase assay, immunoblot” value [8] of the same substance?
**A.** WEE1 specifically phosphorylated H2B and failed to phosphorylate other three core histones, H2A, H3 and H4 (FIG. 13E)

**Q.** And the “in vitro kinase assay, immunoblot” value [9]?
**A.** WEE1 specifically phosphorylated H2B and failed to phosphorylate other three core histones, H2A, H3 and H4 (FIG. 13E)

— patent US20200018762
